Measurements published in patent US20260274955A1 (JANUX THERAPEUTICS, published 2026).

Target: T1, Anti-CD28 Fab (SEQ ID NOs: 202, 203)
T1 construct: biotinylated and captured on neutravidin coated plates in the phage ELISA
Test: phage ELISA, Fab on plate;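 also: crude clonal phage supernatants added to wells pretreated with blocking buffer with or without CD28 antigen, then bound phage read out via HRP-linked anti-M13 antibody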
Procedure: After panning, phage infected bacteria were plated out and colonies picked into 96 well blocks. Clonal phage was then amplified and separated from bacterial cells via centrifugation.
Clonal phage were harvested as crude supernatants and screened via standard ELISAs. […] Prior to the addition of clonal phage, wells were incubated with blocking buffer and CD28 antigen or blocking buffer alone. Without washing or aspirating, clonal phage supernatants were then added to the wells and incubated for a short time. Wells were then washed followed by detection of bound phage using a horse radish conjugated anti-M13 antibody. Clonal phage of interest were then sent for sequence analysis.

T1 sequence (VH, as listed by the source, chain 1 of 2): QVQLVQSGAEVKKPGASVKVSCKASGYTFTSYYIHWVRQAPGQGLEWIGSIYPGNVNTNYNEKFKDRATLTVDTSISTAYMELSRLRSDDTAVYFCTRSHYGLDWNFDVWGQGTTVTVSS
T1 sequence (VL, as listed by the source, chain 2 of 2): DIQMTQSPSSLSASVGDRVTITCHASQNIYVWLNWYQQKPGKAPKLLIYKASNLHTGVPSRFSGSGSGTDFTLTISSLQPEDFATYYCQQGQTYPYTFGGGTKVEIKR

In order of rising “Anti-CD28 Fab (SEQ ID NOs: 202, 203) signal” value (from here on “Anti-CD28 Fab”):
1. YCEGHSSLYLEKCL [Phage-732]  1.11
2. YCDGHIWPWIEKCL [Phage-731]  1.11
3. YCAGHLPQYMHKCL [Phage-730]  1.11
4. YCEGHAEQYMKKCL [Phage-728]  1.12
5. YCDGHVVEYMSKCL [Phage-729]  1.12
6. YCEGHLYEYMWKCL [Phage-725]  1.13
7. YCVGHSEQYMAKCL [Phage-726]  1.13
8. YCDGHEAEYMWKCL [Phage-727]  1.13
9. YCDGHLQMYMMKCL [Phage-724]  1.14
10. YCEGHAAAYMGKCL [Phage-722]  1.14
11. YCQGHLPQYIEKCL [Phage-721]  1.14
12. YCDGHEQQYMEKCL [Phage-723]  1.14
13. YCEGHVAEYRAKCL [Phage-720]  1.15

Target: T2, anti-CD28 Fab (SEQ ID NOs: 202, 203)
T2 construct: biotinylated and captured on neutravidin coated plates in the phage ELISA
Test: phage ELISA on captured Fab;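 also: ELISA with clonal phage supernatants added to wells preincubated with CD28 antigen or with blocking buffer only, bound phage detected by HRP-conjugated anti-M13 antibody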
T2 sequence (VH, as listed by the source, chain 1 of 2): as the sequence (VH, as listed by the source, chain 1 of 2) above
T2 sequence (VL, as listed by the source, chain 2 of 2): as the sequence (VL, as listed by the source, chain 2 of 2) above
Procedure: (§1) Clonal phage were harvested as crude supernatants and screened via standard ELISAs. […] Prior to the addition of clonal phage, wells were incubated with blocking buffer and CD28 antigen or blocking buffer alone. Without washing or aspirating, clonal phage supernatants were then added to the wells and incubated for a short time. Wells were then washed followed by detection of bound phage using a horse radish conjugated anti-M13 antibody.

In order of falling “Anti-CD28 Fab” value:
1. YCDGHAQEYMVKCL (on phage, pIII fusion) [Phage-510]  1.61
2. YCSGHLPEYMWKCL (on phage, pIII fusion) [Phage-508]  1.61
3. YCDGHSVEYKLKCM (on phage, pIII fusion) [Phage-509]  1.61
4. YCDGHSVKYMAKCL (on phage, pIII fusion) [Phage-507]  1.61
5. YCEGHSAAYMQKCL (on phage, pIII fusion) [Phage-513]  1.6
6. YCEGHMPEYLQKCL (on phage, pIII fusion) [Phage-514]  1.6
7. YCDGHELQYMAKCL (on phage, pIII fusion) [Phage-515]  1.6
8. YCAGHSPEYMQKCL (on phage, pIII fusion) [Phage-511]  1.6
9. YCAGHLDQYIEKCL (on phage, pIII fusion) [Phage-517]  1.6
10. YCEGHLPLYMDKCL (on phage, pIII fusion) [Phage-512]  1.6
11. YCDGHRLEYLEKCL (on phage, pIII fusion) [Phage-516]  1.6
12. YCDGHAQEFIWKCL (on phage, pIII fusion) [Phage-518]  1.6
13. YCDGHSEAYMWKCL (on phage, pIII fusion) [Phage-519]  1.59
14. YCQGHLPQYVEKCL (on phage, pIII fusion) [Phage-534]  1.57
15. YCDGHLPMYMKKCL (on phage, pIII fusion) [Phage-533]  1.57
16. YCDGHFLTYMTKCL (on phage, pIII fusion) [Phage-538]  1.56
17. YCEGHLDMYVWKCL (on phage, pIII fusion) [Phage-535]  1.56
18. YCDGHSPLYMVKCL (on phage, pIII fusion) [Phage-537]  1.56
19. YCDGHSQEYMAHCL (on phage, pIII fusion) [Phage-536]  1.56
20. YCDGHLPVYMMKCL (on phage, pIII fusion) [Phage-544]  1.55
21. YCAGHNAQYMSKCL (on phage, pIII fusion) [Phage-545]  1.55
22. YCAGHDQQYMEKCL (on phage, pIII fusion) [Phage-543]  1.55
23. YCAGHSEEYMDKCL (on phage, pIII fusion) [Phage-539]  1.55
24. YCEGHTLEYMWKCL (on phage, pIII fusion) [Phage-541]  1.55
25. YCDGHSQAHMQKCL (on phage, pIII fusion) [Phage-542]  1.55
26. YCDGHSEVYMSKCL (on phage, pIII fusion) [Phage-540]  1.55
27. YCDGHTSEYMTKCL (on phage, pIII fusion) [Phage-546]  1.54
28. YCDGHLPEYITKCL (on phage, pIII fusion) [Phage-573]  1.49
29. YCAGHTVENMAKCL (on phage, pIII fusion) [Phage-575]  1.48
30. YCEGHRPEYMQKCV (on phage, pIII fusion) [Phage-574]  1.48
31. YCEGHVLEYRGKCD (on phage, pIII fusion) [Phage-576]  1.48
32. YCDGHLLEYMSKCL (on phage, pIII fusion) [Phage-582]  1.46

Target: T3, anti-CD28 Fab (SEQ ID NOs: 202, 203)
T3 construct: biotinylated and captured on neutravidin coated plates in the phage ELISA
Test: phage binding ELISA; biotinylated Fab on neutravidin plate;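 also: clonal phage supernatants added to Fab wells pretreated with CD28 antigen or with blocking buffer only, bound phage read out via HRP-linked anti-M13 antibody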
T3 sequence (VH, as listed by the source, chain 1 of 2): as the sequence (VH, as listed by the source, chain 1 of 2) above
T3 sequence (VL, as listed by the source, chain 2 of 2): as the sequence (VL, as listed by the source, chain 2 of 2) above
Procedure: as §1

In order of rising “Anti-CD28 Fab” value:
1. YCEGHLPQYFMKCL [Phage-440]  1.7
2. YCDGHSWEYMEKCL [Phage-441]  1.7
3. YCAGHTQEYMYKCL [Phage-438]  1.7
4. YCDGHSLAYIAKCL [Phage-437]  1.7
5. YCDGHLVEYRGKCL [Phage-432]  1.71
6. YCDGHLQIYMHKCL [Phage-434]  1.71
7. YCDGHLPEYFLKCL [Phage-436]  1.71
8. YCDGHSREYMVKCL [Phage-431]  1.71
9. YCEGHSVQYMQKCL [Phage-429]  1.71
10. YCQGHLPVYMEKCL [Phage-427]  1.72
11. YCDGHLQIYLWKCL [Phage-426]  1.72
12. YCDGHAIQYIGKCL [Phage-422]  1.72
13. YCDGHAAEFMMKCL [Phage-423]  1.72
14. YCDGHAAEYMDKCL [Phage-428]  1.72
15. YCEGHSEMYMKKCL [Phage-425]  1.72
16. YCDGHTQAYIQKCL [Phage-421]  1.73
17. YCDGHSGVYMWKCL [Phage-420]  1.73
18. YCDGHLDIYLAKCL [Phage-303]  1.91
19. YCEGHLAVYMQKCL [Phage-301]  1.91
20. YCEGHSEEYMSKCL [Phage-304]  1.91
21. YCEGHSSEYMEKCL [Phage-302]  1.91
